Laboratory results from PMC8960874 (Nature Communications, 2022).

Target: T1, WT ectodomain of the SARS-CoV-2 spike trimer (SARS-CoV-2, original …, stabilised)
T1 construct: also called S trimer; prefusion spike trimer ectodomain
Assay: cryo-EM structure
Settings: both partners purified

| Binder | stoichiometry N |
| --- | --- |
| Clone 6 Fab (Fab, V domains shown, also called Fab6; Fab clone 6) VH: QVQLQQSAAELARPGASVKMSCKASGYTFTSYTMHWVKQRPGQGLEWIGYINPTSGYTEYNQNFKDKTTLTADKSSSTAYMQLNSLTSEDSAVYYCAREGHRVGPAYWGQGTLVTVSA VL: not shown | 3 Fab molecules per S trimer |
| Clone 2 Fab (Fab, V domains shown, also called Fab2; Fab clone 2) VH: EVQLQQSGPELVKPGASVKISCKASGYSFTGYSMNWMKQSPEKSLEWIGEINPSTGGTTDNQKFKAKATLTVDKSSSTAYMQLKSLTSEDSAVYYCARSRGDYWGQGTSVTVSS VL: DIVLTQSPASLAVSLGQRATISCRASESVEYYGTSLMQWYQQKPGQPPKVLIYAASNVESGVPARFSGSGSGTDFSLNIHPVEEDDIAMYFCQQSRKVPWTFGGGTKLEIK | 3 Fab molecules per S trimer |
